Measured values as given in patent US20040122077.

Tests used:
[1] = system: T1, mutant eNOS peptide (1174-1194) with serine 1179 substituted by alanine
T1 sequence: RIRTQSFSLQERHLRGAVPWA

[2] = system: T2, wild type eNOS peptide 1174-RIRTQSFSLQERHLRGAVPWA-1194
T2 sequence: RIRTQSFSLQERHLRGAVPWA

endogenous eNOS of HUVEC = biological target: T3, endogenous eNOS of HUVEC (UniProt P29474)
T3 sequence: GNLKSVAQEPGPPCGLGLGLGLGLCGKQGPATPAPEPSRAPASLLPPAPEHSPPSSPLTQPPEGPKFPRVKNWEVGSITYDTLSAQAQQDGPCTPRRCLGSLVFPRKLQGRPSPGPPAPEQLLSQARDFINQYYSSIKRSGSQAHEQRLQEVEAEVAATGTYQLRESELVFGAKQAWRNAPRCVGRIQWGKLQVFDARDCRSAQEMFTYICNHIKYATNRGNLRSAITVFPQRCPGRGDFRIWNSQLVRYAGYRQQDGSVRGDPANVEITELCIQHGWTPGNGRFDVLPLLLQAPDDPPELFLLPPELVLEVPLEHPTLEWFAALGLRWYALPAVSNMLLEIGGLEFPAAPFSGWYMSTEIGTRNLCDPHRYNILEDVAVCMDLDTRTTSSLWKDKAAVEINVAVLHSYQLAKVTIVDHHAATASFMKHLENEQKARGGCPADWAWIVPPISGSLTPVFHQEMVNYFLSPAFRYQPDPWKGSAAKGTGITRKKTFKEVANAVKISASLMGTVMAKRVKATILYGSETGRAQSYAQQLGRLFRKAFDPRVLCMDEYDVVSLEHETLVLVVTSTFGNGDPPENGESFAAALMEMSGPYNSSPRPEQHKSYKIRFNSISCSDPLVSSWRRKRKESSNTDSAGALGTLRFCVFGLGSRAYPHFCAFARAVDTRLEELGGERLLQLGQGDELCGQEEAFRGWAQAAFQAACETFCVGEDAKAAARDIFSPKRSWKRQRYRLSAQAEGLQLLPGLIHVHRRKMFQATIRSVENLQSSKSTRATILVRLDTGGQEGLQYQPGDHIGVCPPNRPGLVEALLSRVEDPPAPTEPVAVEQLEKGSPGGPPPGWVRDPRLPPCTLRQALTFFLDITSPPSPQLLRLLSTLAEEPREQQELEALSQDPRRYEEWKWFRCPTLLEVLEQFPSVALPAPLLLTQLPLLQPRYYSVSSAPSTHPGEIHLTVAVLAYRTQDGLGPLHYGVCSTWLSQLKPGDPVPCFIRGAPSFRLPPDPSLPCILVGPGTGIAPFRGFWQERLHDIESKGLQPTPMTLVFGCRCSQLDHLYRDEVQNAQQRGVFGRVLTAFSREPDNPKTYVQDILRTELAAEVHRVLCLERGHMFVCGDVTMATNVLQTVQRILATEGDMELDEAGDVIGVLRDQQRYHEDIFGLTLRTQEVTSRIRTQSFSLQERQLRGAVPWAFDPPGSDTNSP

Row | Substance | phosphorylation of histone H2B by immunoprecipitated Akt (autoradiography) (histone H2B) | 32P incorporation into eNOS peptide by immunoprecipitated Akt (in vitro kinase assay) [1] | 32P incorporation into eNOS peptide by immunoprecipitated Akt (in vitro kinase assay) [2] | 32P-phosphate incorporation into endogenous eNOS in HUVEC (immunoprecipitation, autoradiography) (endogenous eNOS of HUVEC)
1 | Akt immunoprecipitated from HUVEC lysate with goat polyclonal anti-Akt1 antibody | Akt polypeptide kinase activity was increased in lysates of HUVEC treated with 1.0 µM simvastatin or 100 ng/ml VEGF | a peptide with alanine substituted for serine at position 1179 did not incorporate appreciable phosphate under any condition tested | Activation of Akt kinase activity was also observed when lysates prepared from simvastatin-treated cells were tested for their ability to phosphorylate a peptide containing the Akt phosphorylation site of eNOS (amino acids 1174 to 1194) | 
2 | constitutively-active Akt (myrAkt), expressed in HUVEC from an adenovirus |  |  |  | adenovirus-mediated transduction of constitutively-active Akt (myrAkt) led to the incorporation of phosphate into eNOS in the absence of stimulation with simvastatin or VEGF
